Source: patent US20050049201A1, “Detection and removal of lead using lead-binding proteins” (priority 2001, published 2005)

Key:
[1] = Solid phase assay for lead: protein on nitrocellulose with chromogenic dye; conditions: combined results, various buffers, pH, salts and dyes
Experimental: A solid phase assay for the detection of lead was also developed using one or more synthetically produced lead-binding proteins. Both TB4 and ACBP and the various mutants that have been generated from them can be used in this assay. The experiment is performed by binding the protein to a solid surface support, such as nitrocellulose paper, cotton, glass microfibers, or polystyrene beads using, for example, methods described herein. Then the sample to be tested, such as saliva or blood, is placed onto the surface and allowed to react with the protein. After washing with buffer, or example a neutral non-chelating buffer to remove any unreacted material, the sample is treated with a ligand that can detect a lead-leading binding protein complex, for example, a ligand that can cause a color chance upon detecting a lead-protein complex. Examples of such ligands include, sodium sulfide and sodium rhodizonic acid. Furthermore, the concentration of the lead in the sample being tested may be determined by the intensity of the spot produced upon binding of the dye. […]
As a control, the assay was tested using solutions containing several different buffers, pH conditions, and salts for reaction with the sodium sulfide and sodium rhodizonic acid dyes used. […] The pH was determined empirically for rhodizonic acid over a range of pH 4 to pH 8. […]

[2] = lead binding; Quintanilla-Vega 1995, Smith 1998; read-out: dissociation constant (Kd) of high affinity lead-binding region; cited from earlier work

B1: acyl-CoA binding protein (protein, listed as Homo sapiens)
chain: MSQAEFEKAAEEVRHLKTKPSDEEMLFIYGHYKQATVGDINTERPGMLDFTGKAKWDAWNELKGTSKEDAMKAYINKVEELKKKYGI
For B1, the “performance of solid phase lead detection assay” value [1] is given as “works well under various conditions” and the Kd [2] is given as about 1 nM.
